# Experimental data: patent US12129490B2, “Methods for generating hepatocytes and cholangiocytes from pluripotent stem cells” (UNIVERSITY HEALTH NETWORK, priority 2018, dated 2024)
# Assays:
# [1] = system: hPSC-derived hepatoblast aggregates; assay: Growth factor addition to hepatoblast aggregates co-cultured on OP9 stroma; type: cell-based, human; settings: for cholangiocyte branching: hepatoblasts co-cultured with OP9
# Text: To investigate the effect of Notch signaling on cholangiocyte development, we co-cultured the hepatoblast population (day 25) with OP9 stromal cells that are known to express different Notch ligands including Jagged-1^4,5. […] To overcome this problem, we generated 3D aggregates from the day 25 monolayer cells and cultured them on the OP9 stromal cells.
# [2] = system: hESC-derived embryoid bodies; assay: Endoderm induction in hESC-derived embryoid bodies, flow cytometry; type: cell-based, human; settings: day six EBs
# Protocol: Similar to protocols using monolayer cultures^16, it involves specific steps that recapitulate the critical stages of liver development in the early embryo. EBs are formed from small aggregates by culture for 24 hours in low levels of BMP4, as previously described^18. The EBs are subsequently exposed to high concentrations of activin A (hereafter referred to as activin) for five days to induce definitive endoderm, a population defined by expression of the surface markers CXCR4, CKIT and EPCAM and the transcription factors SOX17 and FOXA2.
# Addition of Wnt3A to the activin-induced EB cultures led to reproducible increases in the proportion of CXCR4^+, SOX17^+ and FOXA2^+ cells within the EBs (FIG. 1c). With the increase in CXCR4 expression, the proportion of CKIT^+CXCR4^+ and CXCR4^+EPCAM^+ cells increased to greater than 95% of the population. […] Endoderm induction in the EBs was influenced by the base culture media used. StemPro34 supported more efficient endoderm induction than neural basal media that we used previously (FIG. 1f). The induction of highly enriched endoderm is an important first step in the efficient and reproducible generation of hepatocyte-like cells from hPSCs.
# Media was changed every 3 days.
# Flow cytometric analyses were performed as described previously^45. […] Stained cells were analyzed using an LSRII flow cytometer (BD).
Molecule,cholangiocyte branching [1],also measured
"TGFβ2: TGFbeta family member (protein, UniProt P61812 303-414, looked up, Transforming growth factor beta-2, TGFbeta family member) Transforming growth factor …: ALDAAYCFRNVQDNCCLRPLYIDFKRDLGWKWIHEPKGYNANFCAGACPYLWSSDTQHSRVLSLYNTINPEASASPCCVSQDLEPLTILYYIGKTPKIEQLSNMIVKSCKCS",promote branching structures,–
"TGFβ3: TGFbeta family member (protein, UniProt P10600 301-412, looked up, Transforming growth factor beta-3, TGFbeta family member) Transforming growth factor …: ALDTNYCFRNLEENCCVRPLYIDFRQDLGWKWVHEPKGYYANFCSGPCPYLRSADTTHSTVLGLYNTLNPEASASPCCVPQDLEPLTILYYVGRTPKVEQLSNMVVKSCKCS",promote branching structures,–
"Wnt3A: wingless-type MMTV integration site family, member 3A factor, added to activin-induced EB cultures (protein, UniProt P56704 19-352, looked up) Protein Wnt-3a: SYPIWWSLAVGPQYSSLGSQPILCASIPGLVPKQLRFCRNYVEIMPSVAEGIKIGIQECQHQFRGRRWNCTTVHDSLAIFGPVLDKATRESAFVHAIASAGVAFAVTRSCAEGTAAICGCSSRHQGSPGKGWKWGGCSEDIEFGGMVSREFADARENRPDARSAMNRHNNEAGRQAIASHMHLKCKCHGLSGSCEVKTCWWSQPDFRAIGDFLKDKYDSASEMVVEKHRESRGWVETLRPRYTYFKVPTERDLVYYEASPNFCEPNPETGSFGTRDRTCNVSSHGIDGCDLLCCGRGHNARAERRREKCRCVFHWCCYVSCQECTRVYDVHTCK",–,proportion co-expressing CXCR4 and CKIT or CXCR4 and EPCAM [2]: greater than 95%
"EGF: Epidermal Growth factor (protein, UniProt P01133 23-1207, looked up, Pro-epidermal growth factor) Pro-epidermal growth factor: PQHWSCPEGTLAGNGNSTCVGPAPFLIFSHGNSIFRIDTEGTNYEQLVVDAGVSVIMDFHYNEKRIYWVDLERQLLQRVFLNGSRQERVCNIEKNVSGMAINWINEEVIWSNQQEGIITVTDMKGNNSHILLSALKYPANVAVDPVERFIFWSSEVAGSLYRADLDGVGVKALLETSEKITAVSLDVLDKRLFWIQYNREGSNSLICSCDYDGGSVHISKHPTQHNLFAMSLFGDRIFYSTWKMKTIWIANKHTGKDMVRINLHSSFVPLGELKVVHPLAQPKAEDDTWEPEQKLCKLRKGNCSSTVCGQDLQSHLCMCAEGYALSRDRKYCEDVNECAFWNHGCTLGCKNTPGSYYCTCPVGFVLLPDGKRCHQLVSCPRNVSECSHDCVLTSEGPLCFCPEGSVLERDGKTCSGCSSPDNGGCSQLCVPLSPVSWECDCFPGYDLQLDEKSCAASGPQPFLLFANSQDIRHMHFDGTDYGTLLSQQMGMVYALDHDPVENKIYFAHTALKWIERANMDGSQRERLIEEGVDVPEGLAVDWIGRRFYWTDRGKSLIGRSDLNGKRSKIITKENISQPRGIAVHPMAKRLFWTDTGINPRIESSSLQGLGRLVIASSDLIWPSGITIDFLTDKLYWCDAKQSVIEMANLDGSKRRRLTQNDVGHPFAVAVFEDYVWFSDWAMPSVMRVNKRTGKDRVRLQGSMLKPSSLVVVHPLAKPGADPCLYQNGGCEHICKKRLGTAWCSCREGFMKASDGKTCLALDGHQLLAGGEVDLKNQVTPLDILSKTRVSEDNITESQHMLVAEIMVSDQDDCAPVGCSMYARCISEGEDATCQCLKGFAGDGKLCSDIDECEMGVPVCPPASSKCINTEGGYVCRCSEGYQGDGIHCLDIDECQLGEHSCGENASCTNTEGGYTCMCAGRLSEPGLICPDSTPPPHLREDDHHYSVRNSDSECPLSHDGYCLHDGVCMYIEALDKYACNCVVGYIGERCQYRDLKWWELRHAGHGQQQKVIVVAVCVVVLVMLLLLSLWGAHYYRTQKLLSKNPKNPYEESSRDVRSRRPADTEDGMSSCPQPWFVVIKEHQDLKNGGQPVAGEDGQAADGSMQPTSWRQEPQLCGMGTEQGCWIPVSSDKGSCPQVMERSFHMPSYGTQTLEGGVEKPHSLLSANPLWQQRALDPPHQMELTQ",–,development of CK19+ clusters ([1]; OP9 co-culture): increase in the size
